Test results from patent US20200297818A1 (ZEALAND PHARMA A S, published 2020).

T1: human GLP-2 receptor (hGLP2-R) (human, UniProt O95838 1-553)
T1 sequence (looked up): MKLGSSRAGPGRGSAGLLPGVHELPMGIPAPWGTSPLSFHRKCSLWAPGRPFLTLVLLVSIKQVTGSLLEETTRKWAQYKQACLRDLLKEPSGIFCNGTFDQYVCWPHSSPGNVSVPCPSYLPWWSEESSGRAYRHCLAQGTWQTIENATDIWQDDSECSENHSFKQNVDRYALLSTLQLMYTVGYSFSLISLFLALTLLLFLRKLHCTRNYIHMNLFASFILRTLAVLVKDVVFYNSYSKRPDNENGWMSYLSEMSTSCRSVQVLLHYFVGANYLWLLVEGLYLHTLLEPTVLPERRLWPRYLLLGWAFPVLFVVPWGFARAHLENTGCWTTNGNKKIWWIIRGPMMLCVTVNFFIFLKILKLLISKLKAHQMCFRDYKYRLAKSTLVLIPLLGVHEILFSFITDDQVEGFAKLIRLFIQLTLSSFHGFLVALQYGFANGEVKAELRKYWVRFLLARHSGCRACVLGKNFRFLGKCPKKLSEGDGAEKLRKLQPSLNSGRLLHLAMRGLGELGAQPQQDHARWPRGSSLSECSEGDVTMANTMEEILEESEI


Tests used:
[1] = molecular target: human glucagon-like peptide 1 receptor (GLP-1 R) (human, UniProt P43220 24-463); experiment: cell-based or functional assay
[2] = molecular target: T1, human GLP-2 receptor (hGLP2-R); experiment: cell-based or functional assay

Binder	EC50 GLP-1 (nM); cAMP response [1]	EC50 GLP-2 (nM); cAMP response [2]
HXEGTFSSELATILDXQAARDFIAWLIAHKITD (HELM PEPTIDE1{H.[Aib].E.G.T.F.S.S.E.L.A.T.I.L.D.K.Q.A.A.R.D.F.I.A.W.L.I.A.H.K.I.T.D}|PEPTIDE2{[O=C(O)CCCCCCCCCCCCCCCCC(=O)[*:2]].[gGlu]}$PEPTIDE1,PEPTIDE2,16:R3-2:R2$$$V2.0; SMILES CC[C@H](C)[C@H](NC(=O)[C@H](CC(C)C)NC(=O)[C@H](Cc1c[nH]c2ccccc12)NC(=O)[C@H](C)NC(=O)[C@@H](NC(=O)[C@H](Cc1ccccc1)NC(=O)[C@H](CC(=O)O)NC(=O)[C@H](CCCNC(=N)N)NC(=O)[C@H](C)NC(=O)[C@H](C)NC(=O)[C@H](CCC(N)=O)NC(=O)[C@H](CCCCNC(=O)CC[C@H](NC(=O)CCCCCCCCCCCCCCCCC(=O)O)C(=O)O)NC(=O)[C@H](CC(=O)O)NC(=O)[C@H](CC(C)C)NC(=O)[C@@H](NC(=O)[C@@H](NC(=O)[C@H](C)NC(=O)[C@H](CC(C)C)NC(=O)[C@H](CCC(=O)O)NC(=O)[C@H](CO)NC(=O)[C@H](CO)NC(=O)[C@H](Cc1ccccc1)NC(=O)[C@@H](NC(=O)CNC(=O)[C@H](CCC(=O)O)NC(=O)C(C)(C)NC(=O)[C@@H](N)Cc1c[nH]cn1)[C@@H](C)O)[C@@H](C)O)[C@@H](C)CC)[C@@H](C)CC)C(=O)N[C@@H](C)C(=O)N[C@@H](Cc1c[nH]cn1)C(=O)N[C@@H](CCCCN)C(=O)N[C@H](C(=O)N[C@H](C(=O)N[C@@H](CC(=O)O)C(=O)O)[C@@H](C)O)[C@@H](C)CC) [Compound 21]	1.8 nM	0.27 nM
HXEGTFTSELATILDXQAARDFIAWLIAHKITD (HELM PEPTIDE1{H.[Aib].E.G.T.F.T.S.E.L.A.T.I.L.D.K.Q.A.A.R.D.F.I.A.W.L.I.A.H.K.I.T.D}|PEPTIDE2{[O=C(O)CCCCCCCCCCCCCCCCC(=O)[*:2]].[gGlu]}$PEPTIDE1,PEPTIDE2,16:R3-2:R2$$$V2.0; SMILES CC[C@H](C)[C@H](NC(=O)[C@H](CC(C)C)NC(=O)[C@H](Cc1c[nH]c2ccccc12)NC(=O)[C@H](C)NC(=O)[C@@H](NC(=O)[C@H](Cc1ccccc1)NC(=O)[C@H](CC(=O)O)NC(=O)[C@H](CCCNC(=N)N)NC(=O)[C@H](C)NC(=O)[C@H](C)NC(=O)[C@H](CCC(N)=O)NC(=O)[C@H](CCCCNC(=O)CC[C@H](NC(=O)CCCCCCCCCCCCCCCCC(=O)O)C(=O)O)NC(=O)[C@H](CC(=O)O)NC(=O)[C@H](CC(C)C)NC(=O)[C@@H](NC(=O)[C@@H](NC(=O)[C@H](C)NC(=O)[C@H](CC(C)C)NC(=O)[C@H](CCC(=O)O)NC(=O)[C@H](CO)NC(=O)[C@@H](NC(=O)[C@H](Cc1ccccc1)NC(=O)[C@@H](NC(=O)CNC(=O)[C@H](CCC(=O)O)NC(=O)C(C)(C)NC(=O)[C@@H](N)Cc1c[nH]cn1)[C@@H](C)O)[C@@H](C)O)[C@@H](C)O)[C@@H](C)CC)[C@@H](C)CC)C(=O)N[C@@H](C)C(=O)N[C@@H](Cc1c[nH]cn1)C(=O)N[C@@H](CCCCN)C(=O)N[C@H](C(=O)N[C@H](C(=O)N[C@@H](CC(=O)O)C(=O)O)[C@@H](C)O)[C@@H](C)CC) [Compound 23]	0.13 nM	0.24 nM
HXEGSFTSELATILDXQAARDFIAWLIEHKITD (HELM PEPTIDE1{H.[Aib].E.G.S.F.T.S.E.L.A.T.I.L.D.K.Q.A.A.R.D.F.I.A.W.L.I.E.H.K.I.T.D}|PEPTIDE2{[O=C(O)CCCCCCCCCCCCCCCCC(=O)[*:2]].[gGlu]}$PEPTIDE1,PEPTIDE2,16:R3-2:R2$$$V2.0; SMILES CC[C@H](C)[C@H](NC(=O)[C@H](Cc1ccccc1)NC(=O)[C@H](CC(=O)O)NC(=O)[C@H](CCCNC(=N)N)NC(=O)[C@H](C)NC(=O)[C@H](C)NC(=O)[C@H](CCC(N)=O)NC(=O)[C@H](CCCCNC(=O)CC[C@H](NC(=O)CCCCCCCCCCCCCCCCC(=O)O)C(=O)O)NC(=O)[C@H](CC(=O)O)NC(=O)[C@H](CC(C)C)NC(=O)[C@@H](NC(=O)[C@@H](NC(=O)[C@H](C)NC(=O)[C@H](CC(C)C)NC(=O)[C@H](CCC(=O)O)NC(=O)[C@H](CO)NC(=O)[C@@H](NC(=O)[C@H](Cc1ccccc1)NC(=O)[C@H](CO)NC(=O)CNC(=O)[C@H](CCC(=O)O)NC(=O)C(C)(C)NC(=O)[C@@H](N)Cc1c[nH]cn1)[C@@H](C)O)[C@@H](C)O)[C@@H](C)CC)C(=O)N[C@@H](C)C(=O)N[C@@H](Cc1c[nH]c2ccccc12)C(=O)N[C@@H](CC(C)C)C(=O)N[C@H](C(=O)N[C@@H](CCC(=O)O)C(=O)N[C@@H](Cc1c[nH]cn1)C(=O)N[C@@H](CCCCN)C(=O)N[C@H](C(=O)N[C@H](C(=O)N[C@@H](CC(=O)O)C(=O)O)[C@@H](C)O)[C@@H](C)CC)[C@@H](C)CC) [Compound 24]	0.21 nM	0.17 nM
HXDGSFSSELATILDXQAARDFIAWLIQHKITD (HELM PEPTIDE1{H.[Aib].D.G.S.F.S.S.E.L.A.T.I.L.D.K.Q.A.A.R.D.F.I.A.W.L.I.Q.H.K.I.T.D}|PEPTIDE2{[O=C(O)CCCCCCCCCCCCCCCCC(=O)[*:2]].[gGlu]}$PEPTIDE1,PEPTIDE2,16:R3-2:R2$$$V2.0; SMILES CC[C@H](C)[C@H](NC(=O)[C@H](Cc1ccccc1)NC(=O)[C@H](CC(=O)O)NC(=O)[C@H](CCCNC(=N)N)NC(=O)[C@H](C)NC(=O)[C@H](C)NC(=O)[C@H](CCC(N)=O)NC(=O)[C@H](CCCCNC(=O)CC[C@H](NC(=O)CCCCCCCCCCCCCCCCC(=O)O)C(=O)O)NC(=O)[C@H](CC(=O)O)NC(=O)[C@H](CC(C)C)NC(=O)[C@@H](NC(=O)[C@@H](NC(=O)[C@H](C)NC(=O)[C@H](CC(C)C)NC(=O)[C@H](CCC(=O)O)NC(=O)[C@H](CO)NC(=O)[C@H](CO)NC(=O)[C@H](Cc1ccccc1)NC(=O)[C@H](CO)NC(=O)CNC(=O)[C@H](CC(=O)O)NC(=O)C(C)(C)NC(=O)[C@@H](N)Cc1c[nH]cn1)[C@@H](C)O)[C@@H](C)CC)C(=O)N[C@@H](C)C(=O)N[C@@H](Cc1c[nH]c2ccccc12)C(=O)N[C@@H](CC(C)C)C(=O)N[C@H](C(=O)N[C@@H](CCC(N)=O)C(=O)N[C@@H](Cc1c[nH]cn1)C(=O)N[C@@H](CCCCN)C(=O)N[C@H](C(=O)N[C@H](C(=O)N[C@@H](CC(=O)O)C(=O)O)[C@@H](C)O)[C@@H](C)CC)[C@@H](C)CC) [reference compound A]	0.49 nM	0.083 nM
HXEGSFTSELATILDXQAARDFIAWLIAHKITD (HELM PEPTIDE1{H.[Aib].E.G.S.F.T.S.E.L.A.T.I.L.D.K.Q.A.A.R.D.F.I.A.W.L.I.A.H.K.I.T.D}|PEPTIDE2{[O=C(O)CCCCCCCCCCCCCCCCC(=O)[*:2]].[gGlu]}$PEPTIDE1,PEPTIDE2,16:R3-2:R2$$$V2.0; SMILES CC[C@H](C)[C@H](NC(=O)[C@H](CC(C)C)NC(=O)[C@H](Cc1c[nH]c2ccccc12)NC(=O)[C@H](C)NC(=O)[C@@H](NC(=O)[C@H](Cc1ccccc1)NC(=O)[C@H](CC(=O)O)NC(=O)[C@H](CCCNC(=N)N)NC(=O)[C@H](C)NC(=O)[C@H](C)NC(=O)[C@H](CCC(N)=O)NC(=O)[C@H](CCCCNC(=O)CC[C@H](NC(=O)CCCCCCCCCCCCCCCCC(=O)O)C(=O)O)NC(=O)[C@H](CC(=O)O)NC(=O)[C@H](CC(C)C)NC(=O)[C@@H](NC(=O)[C@@H](NC(=O)[C@H](C)NC(=O)[C@H](CC(C)C)NC(=O)[C@H](CCC(=O)O)NC(=O)[C@H](CO)NC(=O)[C@@H](NC(=O)[C@H](Cc1ccccc1)NC(=O)[C@H](CO)NC(=O)CNC(=O)[C@H](CCC(=O)O)NC(=O)C(C)(C)NC(=O)[C@@H](N)Cc1c[nH]cn1)[C@@H](C)O)[C@@H](C)O)[C@@H](C)CC)[C@@H](C)CC)C(=O)N[C@@H](C)C(=O)N[C@@H](Cc1c[nH]cn1)C(=O)N[C@@H](CCCCN)C(=O)N[C@H](C(=O)N[C@H](C(=O)N[C@@H](CC(=O)O)C(=O)O)[C@@H](C)O)[C@@H](C)CC) [Compound 22]	0.23 nM	0.2 nM
